This is an account of results in the supplement of paper PMC10126150.

This series relates to ATP. As to the kind of experiment: switch fluorescence ratio, 500 uM ATP over buffer (Cy3 cluster intensity, sum of 5 cycles each) (fold (ratio)); higher = stronger signal-on switching upon ATP binding; sequences stand for … in TCGTCGGCAGCGTCAGATGTGTATAAGAGACAGTTTTTTTTTTTTTTTTTTTTTTTTT…TC. The following applies: aptamer strand: ATP DNA aptamer (quencher-CACCTGGGGGAGTATTGCGGAGGAAGG + anchor), 100 nM annealed; ATP concentration: 500 uM. In short, it runs like this: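 Five buffer/ATP imaging cycles were run on Cy3-labelled switching-strand clusters on a modified Illumina MiSeq flow-cell, with NaOH stripping and re-annealing between cycles. In each cycle, clusters annealed to 100 nM quencher-labelled ATP aptamer were imaged in selection buffer, then after 15 min with 500 uM ATP at 22 °C. Per cluster, the fluorescence ratio is summed target-cycle over summed buffer-cycle Cy3 intensity, averaged per switch-domain sequence. Only clusters within 100-1000 RFU were kept.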

± gives the standard deviation of the averaged measurements.
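Also: ATP exposure 15 min at 22 °C before imaging.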

In the case of GCCTAGGGTT, the switch fluorescence ratio is 1 ± 0.023.
The result for TAGGCTTTCG reads 0.9957 ± 0.0076; that for AAGGGGGGTG, 1.03 ± 0.048.
The result for TAAGTACCGG reads 1.06 ± 0.038.
The same measure for TTATGTACTT: 1.05 ± 0.021; for AAATAAAAAC: 1.08 ± 0.044.
For GTGCTATTAT, the switch fluorescence ratio worked out at 0.993 ± 0.024.
The same measure for TGCTTTACGG: 1.009 ± 0.0082.
The same measure for AGTATGGGGT: 0.996 ± 0.018.
The result for CTTTTGTCAC reads 1.05 ± 0.042; that for TTTTACAAGG, 0.983 ± 0.031; that for TGTTGGAGTG, 1.003 ± 0.0044.
In the case of GGTTGTGAAG, the switch fluorescence ratio worked out at 0.994 ± 0.043.
The same measure for AGTTTACTGT: 1.02 ± 0.072; for GGGTTCAGGT: 1.0068 ± 0.00055.
TTTTTGCAGT: the switch fluorescence ratio worked out at 1.02 ± 0.082.
The result for GATCACTGTA reads 1.15 ± 0.036; that for GAAGTTCGTG, 1.01 ± 0.055; that for TGGAATGGTG, 1.05 ± 0.015.
Turning to GGTAAGGGGA, the switch fluorescence ratio amounted to 0.991 ± 0.033.
For ATTTGAATTG, the switch fluorescence ratio was determined as 1.02 ± 0.03.
Turning to AAGTAGCGCT, the switch fluorescence ratio came to 1 ± 0.024.
The same measure for ATCGACGTGT: 1.02 ± 0.02.
The result for AGGGCACATA reads 1.0764 ± 9.5e-05.
Regarding GGGGCTATAT, the switch fluorescence ratio is 1.39 ± 0.62.
The same measure for GCGGTTAGAA: 1.02 ± 0.026; for TCGAGTCATC: 0.965 ± 0.019; for GTATGCGAAG: 1.03 ± 0.053.
As to TTCGTGGCCC, the switch fluorescence ratio was determined as 0.9572 ± 0.003.
The result for CTGATTGTAC reads 1.08 ± 0.069; that for TTCATATAGG, 0.984 ± 0.021; that for CGGAGTTGGG, 0.9863 ± 0.0044.
Take GCATGAGGTG: the switch fluorescence ratio was determined as 1.08 ± 0.021.
The same measure for TTTGGGGTT: 1.02 ± 0.018; for TTTTGGTTAA: 1.02 ± 0.041; for CGTGTTCGCT: 0.9921 ± 0.0016.
As for TATGGTTTTG, the switch fluorescence ratio worked out at 1.01 ± 0.017.
In the case of GGCATAACAC, the switch fluorescence ratio is 1.093 ± 0.0088.
Turning to TTACTAAGGT, the switch fluorescence ratio was 1.063 ± 0.01.
The same measure for TGCGTCAGGC: 1.09 ± 0.045; for TAAAGGTGTT: 1.09 ± 0.095.
The same measure for TACGTTGCAT: 1.05 ± 0.055.
The result for TGACAAGTGG reads 1.01 ± 0.015.
Regarding GCCCAATATC, the switch fluorescence ratio was 2.68 ± 0.053.
The same measure for AACGGGTACC: 1.09 ± 0.088; for CGCTTATGGA: 1.003 ± 0.0032.
The result for TTAAGAATTC reads 0.954 ± 0.021; that for CTAGGTATAG, 1.006 ± 0.0072.
The result for GAATGTGACG reads 1.02 ± 0.013; that for ATTGAGGGAG, 1 ± 0.024.
For the sequence CGTATGCTGG, the switch fluorescence ratio came out at 1.02 ± 0.019.
The result for AGAAAAAGGA reads 1.01 ± 0.044.
In the case of TAAGGTAGGG, the switch fluorescence ratio worked out at 1.01 ± 0.013.
The result for TATTGTGAAT reads 1 ± 0.014; that for CTGGTTATTT, 1.04 ± 0.076.
With AGCGGTTTCC, the switch fluorescence ratio was 1.029 ± 0.0093.
On to TAGATTGTAA, for which the switch fluorescence ratio turned out to be 1.05 ± 0.11.
For the sequence GGGGGAAGGT, the switch fluorescence ratio turned out to be 0.982 ± 0.032.
Regarding GCGGCGGGGA, the switch fluorescence ratio stood at 1.01 ± 0.039.
Consider TAGAATCAGG, for which the switch fluorescence ratio amounted to 1.055 ± 0.0011.
As for TTGGGGATCG, the switch fluorescence ratio was 0.983 ± 0.056.
For the sequence CACTGCCTGC, the switch fluorescence ratio was 1.08 ± 0.036.
CCGCGTTATG: the switch fluorescence ratio is 1.67 ± 0.078.
Take GGGCCGGAAA: the switch fluorescence ratio worked out at 1.01 ± 0.049.
As to ATCTCGGGTG, the switch fluorescence ratio worked out at 1.01 ± 0.043.
Take TGTGTATGGC: the switch fluorescence ratio was 1.12 ± 0.19.
The same measure for TACGTATACT: 1.39 ± 0.015; for ATGGTGACGG: 0.9765 ± 0.0034.
Take TCTCTTATGA: the switch fluorescence ratio is 0.997 ± 0.011.
The result for TCCAAAATGG reads 1.09 ± 0.04; that for AGGTTATAGG, 1.05 ± 0.091; that for TTTAAGAGAA, 1.001 ± 0.0059.
With TCTCAGTAGG, the switch fluorescence ratio stood at 1.02 ± 0.013.
The result for GGAGTTCGTT reads 1.09 ± 0.052; that for GGGAGGTAGG, 0.991 ± 0.01; that for AAGTGGGGTG, 0.982 ± 0.019.
The same measure for TCGCGGGAAA: 1.01 ± 0.025; for TATGGCATAC: 1.51 ± 0.02; for AATGGGGGGG: 0.998 ± 0.034.
The same measure for CTTTAAGCAA: 4.65 ± 0.36; for CTTACTATTC: 0.9715 ± 0.0069.
For GTATGCGCAA, the switch fluorescence ratio is 2.74 ± 0.06.
Consider TATAGATAAG, for which the switch fluorescence ratio worked out at 1.01 ± 0.015.
The result for GATCCGAGTT reads 0.99 ± 0.034; that for TTGTGTAATT, 1.06 ± 0.05.
The result for TTAATAGATG reads 1 ± 0.029; that for CGGGGGACGC, 0.993 ± 0.06; that for TGGGCGATAT, 1.95 ± 1.1.
The result for ATCAGCGACT reads 0.993 ± 0.043.
GGAAACTTTT: the switch fluorescence ratio stood at 1.07 ± 0.098.
As for GGGCTTGGCG, the switch fluorescence ratio was determined as 1.0275 ± 0.00013.
The result for TCGGCGTCTT reads 0.977 ± 0.04.
For the sequence GGAGGGACTT, the switch fluorescence ratio amounted to 1.39 ± 0.68.
CGGTGCATGG: the switch fluorescence ratio was 0.991 ± 0.1.
The same measure for TAGTTAATCG: 0.968 ± 0.017; for GGTTAAGGGA: 0.982 ± 0.024; for CTGTGGTGGG: 0.996 ± 0.051.
The result for GATCCATACT reads 1.06 ± 0.042; that for TTCGTTAGCG, 0.996 ± 0.022; that for TGGTAGGGGA, 1.04 ± 0.03.
The same measure for GAGTTGTGTA: 0.985 ± 0.035; for TAACGGGAGG: 0.998 ± 0.017.
As for TTAGTAGGTC, the switch fluorescence ratio is 0.992 ± 0.047.
Turning to AAGAAGAAAT, the switch fluorescence ratio was determined as 1.04 ± 0.066.
Regarding TTTAGGTAAC, the switch fluorescence ratio was found to be 0.9922 ± 0.0079.
The same measure for CACCTGTTGC: 1.02 ± 0.011; for GTTAGGGGTG: 1.02 ± 0.023.
On to CAGGGGTGGC, for which the switch fluorescence ratio was found to be 0.9529 ± 0.0021.
As for CTGCTAGGTA, the switch fluorescence ratio turned out to be 0.9975 ± 0.0027.
As to CGGAAAGAAA, the switch fluorescence ratio was 1.06 ± 0.058.
Consider GGTTTGGGGG, for which the switch fluorescence ratio was determined as 0.997 ± 0.023.
The same measure for AGAATAATAG: 1.02 ± 0.026.
As to GGGATAACAG, the switch fluorescence ratio worked out at 1.04 ± 0.011.
The result for ATTTACTCGT reads 1.014 ± 0.0017; that for AGTGGCTATC, 1.01 ± 0.018.
For the sequence CCGAATTCT, the switch fluorescence ratio came to 1.13 ± 0.029.
As for GCTCTGTCGG, the switch fluorescence ratio is 1.02 ± 0.012.
Regarding TGGCCGTGCT, the switch fluorescence ratio is 0.904 ± 0.071.
The same measure for AGGTTCTTA: 0.994 ± 0.06; for ACGGGTTCGC: 0.988 ± 0.022.
